The target in one test is LILRB2 (Homo sapiens) (UniProt Q8N423). Conditions: cited from earlier work.
For test [1], the target named is ANGPTL2-Flag (angiopoietin-like protein 2) (UniProt Q9UKU9). Description: flow cytometry on cells. The conditions noted are these: MAG constructs expressed on 293T cells; ANGPTL2 row of plots (representative plot; n = 3 in panel H); parent: 41.7. A general note: In flow cytometry, cells or beads pass a laser one at a time.
Test [2] concerns the target human MAG-ECD-FC (extracellular domain of human MAG fused with human Fc) (human) (UniProt P20916). Description: BLI; Octet RED96/RED96e; MAG-hFc from conditioned medium loaded on AHC biosensors; purified ANGPTL2 at indicated doses in kinetics buffer. A general note: In BLI a coated tip is dipped into the sample, and binding shifts an interference pattern.
The target of test [3] is T1, murine MAG-ECD-Fc (extracellular domain of murine MAG fused with human Fc) (murine, UniProt P20917 20-516).
T1 construct: myelin-associated glycoprotein (MAG), murine, extracellular domain (ECD); also called mouse MAG-hFc; murine MAG-hFC; source: 293T, transfected, in conditioned medium
T1 sequence (looked up): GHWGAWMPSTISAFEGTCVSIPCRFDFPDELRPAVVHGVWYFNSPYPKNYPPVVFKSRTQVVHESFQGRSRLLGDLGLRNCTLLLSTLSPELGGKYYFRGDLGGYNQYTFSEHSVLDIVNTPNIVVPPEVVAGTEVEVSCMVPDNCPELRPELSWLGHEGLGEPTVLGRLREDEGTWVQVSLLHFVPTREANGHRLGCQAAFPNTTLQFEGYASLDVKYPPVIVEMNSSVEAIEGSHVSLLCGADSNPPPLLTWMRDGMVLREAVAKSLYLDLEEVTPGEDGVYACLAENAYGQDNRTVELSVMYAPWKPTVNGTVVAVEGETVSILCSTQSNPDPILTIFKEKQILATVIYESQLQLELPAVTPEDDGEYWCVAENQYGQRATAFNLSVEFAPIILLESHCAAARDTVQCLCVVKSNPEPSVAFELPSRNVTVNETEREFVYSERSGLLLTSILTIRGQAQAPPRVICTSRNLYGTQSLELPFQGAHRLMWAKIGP
The description is as above. Conditions: one partner purified.

Test [4] concerns the target human MAG-ECD-FC (extracellular domain of human MAG fused with human Fc) (human) (UniProt P20916). Description: SPR; Biacore T200, CM5 chip; MAG-hFc from conditioned medium captured by pre-immobilised anti-hFc antibody; purified ANGPTL2 injected at indicated doses. A general note: SPR reads the build-up and loss of mass on a sensor chip optically.
In test [5] the target is T1, murine MAG-ECD-Fc (extracellular domain …). The description is as above. Conditions: one partner purified.
Test [6] has as its target T2, ANGPTL2-Flag (angiopoietin-like protein 2), Q9UKU9.
T2 chain: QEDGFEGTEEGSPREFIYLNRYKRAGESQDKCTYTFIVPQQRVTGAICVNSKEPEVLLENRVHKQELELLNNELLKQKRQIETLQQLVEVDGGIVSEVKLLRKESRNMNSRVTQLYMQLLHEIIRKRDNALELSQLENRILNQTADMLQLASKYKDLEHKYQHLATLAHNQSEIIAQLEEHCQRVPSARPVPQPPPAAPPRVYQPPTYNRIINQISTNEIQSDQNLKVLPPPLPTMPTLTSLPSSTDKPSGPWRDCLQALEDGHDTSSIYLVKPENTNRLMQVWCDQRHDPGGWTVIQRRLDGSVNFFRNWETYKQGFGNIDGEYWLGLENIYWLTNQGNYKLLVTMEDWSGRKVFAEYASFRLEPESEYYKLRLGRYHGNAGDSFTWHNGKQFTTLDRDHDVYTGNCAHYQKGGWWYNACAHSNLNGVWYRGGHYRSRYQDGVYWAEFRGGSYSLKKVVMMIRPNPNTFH
Description: flow cytometry on cells. Conditions: chain shown with the change; MAG constructs expressed on 293T cells; ANGPTL2 row of plots (representative plot; n = 3 in panel H); parent: 41.7.

LILRB2 (Homo sapiens), sequence (Q8N423 22-460): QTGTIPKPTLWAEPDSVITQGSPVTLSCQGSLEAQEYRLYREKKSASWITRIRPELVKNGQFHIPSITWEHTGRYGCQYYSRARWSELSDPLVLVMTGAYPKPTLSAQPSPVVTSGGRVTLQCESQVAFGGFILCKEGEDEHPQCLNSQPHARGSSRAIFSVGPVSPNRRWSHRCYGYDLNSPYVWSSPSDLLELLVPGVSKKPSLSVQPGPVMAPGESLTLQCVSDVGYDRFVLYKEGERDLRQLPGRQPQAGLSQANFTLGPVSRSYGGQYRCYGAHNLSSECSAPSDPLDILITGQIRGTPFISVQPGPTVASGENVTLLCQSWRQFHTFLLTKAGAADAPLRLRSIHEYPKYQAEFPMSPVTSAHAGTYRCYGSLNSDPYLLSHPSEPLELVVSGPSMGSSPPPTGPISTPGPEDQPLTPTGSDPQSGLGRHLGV

As to ANGPTL2 (from UniProt Q9UKU9), the Kd in the test with LILRB2 (Homo sapiens) was 5.5 nM. As to “human MAG (myelin-associated glycoprotein), full-length, fused with EGFP (N1-hMAG-EGFP) (from UniProt P20916) G389D; Y341A”, the response (% of EGFP+ cells binding ANGPTL2) in test [1] came to 0.33.

B1: ANGPTL2-Flag (angiopoietin-like protein 2) (ligand, UniProt Q9UKU9 23-493, looked up)
chain: T2 chain
notes: angiopoietin-like protein 2 (ANGPTL2), secreted into the conditioned medium of 293T cells; The same ANGPTL2-Flag was used on human and murine MAG; also called purified ANGPTL2 protein; source: 293T, transfected with CMV-ANGPTL2-Flag; conditioned medium collected after 48 h, or purified from it with M2 resin
For the molecule B1, the Kd is 9.34 nM in test [2], 16.4 nM in test [3], 6.47 nM in test [4] and 3.08 nM in test [5].

B2: human MAG (myelin-associated glycoprotein), full-length, fused with EGFP (N1-hMAG-EGFP), P20916 G301D; Y303A (protein)
chain: GHWGAWMPSSISAFEGTCVSIPCRFDFPDELRPAVVHGVWYFNSPYPKNYPPVVFKSRTQVVHESFQGRSRLLGDLGLRNCTLLLSNVSPELGGKYYFRGDLGGYNQYTFSEHSVLDIVNTPNIVVPPEVVAGTEVEVSCMVPDNCPELRPELSWLGHEGLGEPAVLGRLREDEGTWVQVSLLHFVPTREANGHRLGCQASFPNTTLQFEGYASMDVKYPPVIVEMNSSVEAIEGSHVSLLCGADSNPPPLLTWMRDGTVLREAVAESLLLELEEVTPAEDDVAACLAENAYGQDNRTVGLSVMYAPWKPTVNGTMVAVEGETVSILCSTQSNPDPILTIFKEKQILSTVIYESELQLELPAVSPEDDGEYWCVAENQYGQRATAFNLSVEFAPVLLLESHCAAARDTVQCLCVVKSNPEPSVAFELPSRNVTVNESEREFVYSERSGLVLTSILTLRGQAQAPPRVICTARNLYGAKSLELPFQGAHRLMWAKIGPVGAVVAFAILIAIVCYITQTRRKKNVTESPSFSAGDNPPVLFSSDFRISGAPEKYESERRLGSERRLLGLRGEPPELDLSYSHSDLGKRPTKDSYTLTEELAEYAEIRVK
Turning to B2, the response (% of EGFP+ cells binding ANGPTL2) in test [6] came out at 0.61.

The Kd is the equilibrium constant for the complex coming apart.
